From publication PMC12392098, “Predicting the DNA binding specificity of transcription factor mutants using family-level biophysically interpretable machine learning”

Target: ASCL2 DBD wild type (human, UniProt Q99929 50-102)
Experiment: EMSA; preferred over CACGTG probe; 32P EMSA: ~50 nM probe, 0.5/1/2 uM protein, 30 min, reagents as in Feng et al., gel at 4 C; fluorescent EMSA: 5x buffer (50 mM Tris pH 7.5, 250 mM NaCl, 5 mM MgCl2, 20% glycerol, 2.5 mM DTT, 2.5 mM EDTA, 250 ug/ml poly(dI-dC), 1 mg/ml BSA) used at 1x plus half volume protein dialysis buffer (20 mM HEPES pH 7.9, 200 mM NaCl, 10% glycerol, 2 mM MgCl2), gel 0.5x TBE at 4 C
Conditions: protein: recombinant; tags: N-terminal 6xHis; mScarlet fusion; chain copies: 2; label: 32P (SRI primer strand); blunt

ASCL2 DBD wild type, sequence (Q99929 50-102): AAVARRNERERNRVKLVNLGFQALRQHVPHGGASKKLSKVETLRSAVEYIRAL

B1: CAGCTG probe (dsDNA)
DNA 1: TAGCCAATAACTTCGTCCCTCAGCTGCATATAAGGAAGATCTAACCACCAATTTGG
DNA 2: CCAAATTGGTGGTTAGATCTTCCTTATATGCAGCTGAGGGACGAAGTTATTGGCTA
  binding result: binds
